The target of the test is GST-tagged p65_(532–550) (human). The test can be described thus: pull-down.

For the substance “His-DNA-PKcs_(541-988) (from UniProt P78527 541-988) (domain or fragment)”, the binding efficiency (bound fragment intensity/input fragment intensity) was determined as 17%.

Take “His-DNA-PKcs_(2408-2819) (from UniProt P78527 2408-2819) (domain or fragment)”: the binding efficiency (bound fragment intensity/input fragment intensity) was determined as 99%.

(Values after article PMC10477060.)
